In paper PMC4287557 (PLoS Pathogens, 2015):

How the values were obtained:
[1] = biological target: JRFL gp120 monomer (HIV-1 subtype B strain JRFL, UniProt Q75760); test: BLI; conditions: both partners purified
[2] = biological target: 16055 gp120 monomer (HIV-1 subtype C strain 16055); test: BLI; conditions: both partners purified

B1: VRC01 IgG (antibody, V domains shown)
VH: QVQLVQSGGQMKKPGESMRISCRASGYEFIDCTLNWIRLAPGKRPEWMGWLKPRGGAVNYARPLQGRVTMTRDVYSDTAFLELRSLTVDDTAVYFCTRGKNCDYNWDFEHWGRGTPVIVSS
VL: EIVLTQSPGTLSLSPGETAIISCRTSQYGSLAWYQQRPGQAPRLVIYSGSTRAAGIPDRFSGSRWGPDYNLTISNLESGDFGVYYCQQYEFFGQGTKVQVD
notes: also called bNAb VRC01
[1]
  binding result: binds
[2]
  binding result: binds
